# ± gives the uncertainty stated by the source.
# Test: protein stability index of a GFP-peptide fusion (yeast GPS) (PSI 1-4); higher = more stable; sorted into four equal gates, so the index is relative within each strain
# How it was run: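 The protein stability index combines read frequencies across sorting gates, each weighted by its gate number and then summed. To obtain those frequencies, a pooled yeast library of GFP fusions to tiled 17-residue yeast protein peptides, on a plasmid also expressing Cherry, was grown to mid-log phase in leucine-free medium. The cells were sorted into four equal gates by GFP/Cherry ratio before plasmid amplification by PCR and Illumina sequencing.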
Sequence,protein stability index (doa10∆),protein stability index (pdr5∆),protein stability index (san1∆),protein stability index (ubr1∆)
KLLAKELEEQESESERK [SMC2],2.71 ± 0.13,3.23 ± 0.089,2.46 ± 0.16,3.14 ± 0.1
TRAAKIAPRPLDLLRPV [RPL13A],2.95 ± 0.091,3.27 ± 0.11,3.15 ± 0.081,2.89 ± 0.054
DDISRQVARTNLDGTKA [ROX3],3.12 ± 0.096,2.88 ± 0.091,3.09 ± 0.087,3.11 ± 0.071
PRMASVFENYVKKTGEN [CDC53],3.46 ± 0.11,3.4 ± 0.087,3.54 ± 0.065,3.47 ± 0.049
PTPSVKTEPVGTGLQSY [RPC53],3.4 ± 0.25,3.23 ± 0.13,3.16 ± 0.1,3.25 ± 0.11
FNRENKVSPADAAKKAL [RPS26A],3.42 ± 0.13,3.01 ± 0.14,3.17 ± 0.048,3.4 ± 0.073
ETFSTSAHQSPIMQTQM [SNF2],3.17 ± 0.077,2.8 ± 0.072,3.28 ± 0.062,3.15 ± 0.04
QGDGLLTKLQKYGAAVR [RPN7],2.93 ± 0.17,2.89 ± 0.14,3.17 ± 0.12,3.28 ± 0.19
PFNQGSKQDVEALIEFI [FAS2],3.08 ± 0.073,3.15 ± 0.076,3.01 ± 0.079,3.08 ± 0.061
GTLEGHNGWVTSLATSA [ASC1],2.61 ± 0.063,1.87 ± 0.069,1.74 ± 0.15,1.67 ± 0.066
MKRMVAQWERSKLSQEF [SNF12],3.23 ± 0.22,3.05 ± 0.15,3.11 ± 0.23,3.21 ± 0.087
ATVPSAPYRKQIISNAH [YAR002W/NUP60],2.34 ± 0.062,2.41 ± 0.069,1.88 ± 0.093,2.37 ± 0.06
SPLQKEEALNFDISMAD [SSN2],3.23 ± 0.058,3.07 ± 0.057,3.18 ± 0.07,3.25 ± 0.058
FTNRIPSKTPEVYMRYR [SWI3],2.08 ± 0.052,1.88 ± 0.057,2.35 ± 0.068,2.03 ± 0.054
SKNAQFICTTFRTDMLQ [SMC3],2.11 ± 0.074,1.49 ± 0.075,1.5 ± 0.13,1.05 ± 0.073
LIITRKAFKNNSSKYYI [SMC4],2.59 ± 0.083,2.98 ± 0.092,2.66 ± 0.068,2.69 ± 0.11
LEYYAMLSKTKVYYFQG [RPL30],2.4 ± 0.096,3.08 ± 0.1,2.09 ± 0.079,2.89 ± 0.13
LVYNMTSFEQGEITFDG [RPT4],2.65 ± 0.095,2.33 ± 0.079,2.97 ± 0.085,2.94 ± 0.17
TAETNNKVHETSSKSSS [YDL088C/ASM4],2.86 ± 0.039,2.96 ± 0.045,2.84 ± 0.039,2.89 ± 0.032
GVCNHAFHLHCINKWIK [HRT1],1.77 ± 0.045,2.49 ± 0.04,1.64 ± 0.068,2.16 ± 0.042
VHRDDPALVGKLRGDLR [SNF6],3.36 ± 0.083,3.2 ± 0.088,2.7 ± 0.092,2.88 ± 0.071
FGPKKENRKKDESDSEN [YLR335W/NUP2],3.04 ± 0.14,3.19 ± 0.086,2.62 ± 0.079,3.42 ± 0.091
WYKVAKNVGNKSPEQCI [SWI3],2.98 ± 0.097,3.27 ± 0.07,3.07 ± 0.093,3.08 ± 0.05
RKHKRVSPNAAPRQEIS [YAR002W/NUP60],2.92 ± 0.08,2.89 ± 0.056,2.92 ± 0.046,2.71 ± 0.063
FLLKAYINVSRGTDIDR [SRB5],–,–,–,3.08 ± 0.22
LKNVNKRAFENFKKFNE [SMC3],2.23 ± 0.086,1.95 ± 0.15,1.91 ± 0.094,1.88 ± 0.09

# — the supplement of paper PMC9732359
